Values of other authors in patent US9969737B2, “Fluorescent carbapenems” (Hans Rudolf Pfaendler, priority 2010, dated 2018).

Details: comparison; cited from earlier work

Green Fluorescent Protein
Stokes shift: 114 nm
